Source: article PMC10839789, “More indications for redox-sensitive cysteine residues of the Arabidopsis 5-aminolevulinate dehydratase” (Frontiers in Plant Science, 2023)
Numbering of substitutions follows the chain as printed. In names and notes the source's numbering stands.

B1: recombinant 6xHis-ALAD (Arabidopsis thaliana 5-aminolevulinic acid dehydratase 1, mature, wild type) (enzyme, UniProt Q9SFH9 53-430, looked up)
chain: ASESGNGHAKKLGMSDAECEAAVAAGNVPEAPPVPPKPAAPVGTPIIKPLNLSRRPRRNRASPVTRAAFQETDISPANFVYPLFIHEGEEDTPIGAMPGCYRLGWRHGLVQEVAKARAVGVNSIVLFPKVPEALKNSTGDEAYNDNGLVPRTIRLLKDKYPDLIIYTDVALDPYSSDGHDGIVREDGVIMNDETVHQLCKQAVSQARAGADVVSPSDMMDGRVGAIRSALDAEGFQNVSIMSYTAKYASSFYGPFREALDSNPRFGDKKTYQMNPANYREALIEAREDEAEGADILLVKPGLPYLDIIRLLRDKSPLPIAAYQVSGEYSMIKAGGVLKMIDEEKVMMESLMCLRRAGADIILTYFALQAATCLCGEKR
notes: ALAD1 (HEMB1, AT1G69740), Arabidopsis thaliana, cloned without the transit peptide (aa 1-52, ChloroP); mature ALAD1 is Ala53 to Arg430 of the 430-residue precursor; pET28a(+); also called ALAD1; ALAD(WT); source: E. coli Rosetta (DE3), purified (Ni-NTA agarose); not shown: His6, N-terminal, kept
B2: recombinant 6xHis-ALAD(C424S/C426S) (enzyme, Arabidopsis thaliana, UniProt Q9SFH9 53-430, looked up)
chain: B1 chain with C372S, C374S
notes: ALAD1 (HEMB1, AT1G69740), Arabidopsis thaliana, mature form without the transit peptide (aa 1-52), Ala53 to Arg430; made by site-directed mutagenesis of pET28a(ALAD); also called ALAD(C424/C426); source: E. coli Rosetta (DE3), purified (Ni-NTA agarose); not shown: His6, N-terminal, kept

What was measured:
[1] = target: the molecule itself; experiment: non-reducing SDS-PAGE with immunoblot (disulfide-linked oligomers); ALAD oxidised with diamide, dialysed, then 1 uM ALAD incubated 30 min with diamide, DTT (0.1-10 mM) or 0.1 mM DTT with TRX-f1/TRX-m1 (6.7 uM) or BSA (2 uM); free Cys blocked with NEM; non-reducing 10% SDS-PAGE; anti-His blot
[2] = target: the molecule itself; experiment: non-reducing SDS-PAGE with immunoblot (disulfide-linked oligomers); recombinant ALAD preincubated 15 min at RT with 1 mM diamide (oxidising) or untreated; non-reducing 12% SDS-PAGE; anti-His blot

Row | Protein | binding result [1] | binding result [2]
1 | B1 | binds | –
2 | B2 | – | binds
